Reference: US8470587B2, “129Xe biosensors and their use” (The Trustees of the University of Pennsylvania, priority 2006, dated 2013)
“And” between values parts separate entries of the source, which are not always exact repeats. Identical values can stand only once. Like-named read-outs stand apart in the source and are kept apart here. One block for each molecule: values may come before it. * marks the point of attachment. monopropargyl‑cryptophane‑A = monopropargyl-cryptophane-A, coupled to the azido-peptide by Cu(I)-mediated coupling; 3‑azidopropionyl = [N-]=[N+]=NCCC(=O)*

Legend:
MMP-7 [1] = target: T1, MMP-7 (Homo sapiens, UniProt P09237); experiment: fluorometric MMP-7 enzymatic assay (Trp fluorescence); format: biochemical
T1 construct: BIOMOL International LP, MMP-7 (recombinant, catalytic domain); purchased BIOMOL International LP
T1 sequence (P09237 95-267): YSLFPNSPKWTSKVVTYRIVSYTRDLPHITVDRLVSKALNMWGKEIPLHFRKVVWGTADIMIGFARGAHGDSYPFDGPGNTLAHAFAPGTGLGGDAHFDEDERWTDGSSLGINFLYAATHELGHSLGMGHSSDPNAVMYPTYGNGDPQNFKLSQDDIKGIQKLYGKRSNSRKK
Description: Fluorescence spectra of I and II dissolved in standard buffer (λex=295 nm) were measured in small volume, 1-cm pathlength quartz cuvettes at 298 K using a Varian Cary Eclipse fluorescence spectrophotometer operated with the Cary Eclipse Bio software package (1 nm steps, 5 nm excitation and emission slits). Kinetics data were collected at 30 s intervals using the same software on samples with controlled temperature and stirring.
For the fluorometric enzymatic assay, an aliquot (2 μL) of active MMP-7 (0.454 μg/μL) was added into 0.998 mL solution of ^129Xe biosensor I with known concentration at 298 K. Fluorescence spectra were collected from 310-450 nm. All reported fluorescence data are uncorrected and are roughly 5 nm red-shifted from the values obtained when the instrumental correction feature is employed. Trp fluorescence at 400 nm was analyzed as a function of time, since there was little contribution at this wavelength from monopropargyl-cryptophane-A fluorescence. The enzyme activity was calculated from the initial rate of decrease in Trp emission at 400 nm, over the time interval that corresponded to the first 10-15% completion of the reaction. The kcat/KM value for biosensor I was calculated by non-linear regression of the activity data by varying the biosensor concentration from 6-100 μM; double-reciprocal 1/v versus 1/[S] Lineweaver-Burk plots^49 gave a similar kcat/KM value.
In enzyme kinetics studies, the fluorescence spectrum of I was taken at 30 s intervals after addition of MMP-7 (FIG. 7b). A continuous decrease of Trp emission was observed. The change in fluorescence intensity at 400 nm was used to calculate the initial velocity (v) of the enzyme reaction. The v values determined by HPLC and fluorometric methods were in excellent agreement (Table 1), which validated using the fluorometric assay to monitor this enzyme reaction. The Trp fluorescence assays were easier to run, allowed continuous monitoring of the reaction, provided greater sensitivity, and required less material than HPLC-based UV-vis absorbance measurements.

MMP-7 [2] = target: T1, MMP-7; experiment: MMP-7 enzymatic assay monitored by HPLC (UV-vis); format: biochemical
Description: (§1) At rt, an aliquot (2 μL) of active MMP-7 (0.454 μg/μL) was added into 0.998 mL of a freshly prepared solution of biosensor I at a known concentration in standard buffer. The extinction coefficient of I, ε=15,000 M^−1 cm^−1 at 280 nm in water, was determined from a solution containing the weighed sample. At approximately 3 min intervals, 70 μL aliquots were removed from the reaction mixture and immediately quenched with 30 μL of a 40 mM EDTA solution. Each aliquot was analyzed by HPLC with the gradient: time 0, A/B=75/25; 0-30 min, linear increase to A/B=45/55; 30-32 min, linear change to A/B=20/80; 32-42 min, A/B=20/80. The retention times for I and II were 15.6 min and 17.9 min, respectively. The enzyme activity was determined from the initial rate of increase in the concentration of cleaved sensor II, during the consumption of the first 10-15% of substrate I. The absorbance at 280 nm of the growing peak at 17.9 min was integrated and compared for each time point. Initial velocities were measured at substrate I concentrations of 6, 16, 28, 38, 48, 74 and 100 μM.
(§2) For the azidopeptide substrate 1, enzyme activity was determined similarly by HPLC with the gradient: time 0, A/B=90/10; 0-30 min, linear increase to A/B=60/40; 30-32 min, linear change to A/B=20/80; 32-42 min, A/B=20/80. Peak areas were monitored for the intact substrate 1 and cleaved hexapeptide product 3 at retention times of 17.0 and 10.3 min, respectively. Initial velocities were measured at substrate 1 concentrations of 6, 50, 100, and 870 μM.
The ability of MMP-7 to hydrolyze ^129Xe biosensor I was initially confirmed by HPLC analysis (FIG. 3a). A standard assay was performed by incubating a 1 mL reaction mixture of 32 nmol I and 42 pmol MMP-7 at 310 K. Reaction progress was monitored by analyzing aliquots of the reaction mixture at regular intervals. […] MALDI-TOF mass spectrometry identified these new peaks as the cleaved hexapeptide LWRSRK 3 and cryptophane-peptide product II, respectively. The peptide cleavage pattern agreed with previous assays using this substrate. […]

MMP-7 [3] = target: T1, MMP-7; experiment: MMP-7 enzyme kinetic parameters, Michaelis-Menten fit of initial velocities; format: biochemical
Description: as §1
(§3) The kcat/KM value for all peptide substrates was calculated based on the Michaelis-Menten equation (Equation 1) after fitting the activity data at varying substrate concentrations with a non-linear regression curve: […]
as §2
(§4) For the fluorometric enzymatic assay, an aliquot (2 μL) of active MMP-7 (0.454 μg/μL) was added into 0.998 mL solution of ^129Xe biosensor I with known concentration at 298 K. Fluorescence spectra were collected from 310-450 nm. […]

[4] = concentration dependence of fluorescence intensity (aggregation); format: physicochemical; conditions: fluorescence intensity linear over 1-250 μM, standard buffer
Description: Solutions were at room temperature in standard buffer. The fluorescence intensity for each compound at a given wavelength and concentration was normalized to its value at the maximum biosensor concentration, in order to facilitate comparison and show linearity over a large concentration range.
Experiments were performed to identify the important contributions to the observed Trp fluorescence quenching. In the fully extended biosensor I (FIG. 1) cryptophane and Trp were separated by approximately 40 Å. Temperature dependence studies identified little contribution to Trp quenching from the cryptophane within the intact biosensor I. The observed decrease in Trp fluorescence at elevated temperatures (λem=358 nm, F/F0=0.3 at 353 K) was virtually identical to that seen with the Trp-containing hexapeptide 3, and was thus attributed to temperature-dependent solvent quenching by non-radiative decay processes. […] This was confirmed with I and II by comparing the concentration dependence of fluorescence intensity (λex=295 nm, λem=318 nm for cryptophane and λem=358 nm for Trp), after correcting for inner filter effects and dilution. Neither compound's fluorescence intensity deviated from linearity over the concentration range, 1-250 μM (FIG. 8). The absorption and fluorescence maxima were unchanged over this range.

[5] = tested on: Trp-containing hexapeptide LWRSRK 3; experiment: Stern-Volmer fluorescence quenching of hexapeptide 3 by cleaved biosensor II; format: binding; conditions: 3 at 16 μM, II 0-120 μM, 298 K, standard buffer; listed as II
Description: Solution of 3 was titrated with 3.18 mM II, to achieve concentrations of II between 0 and 120 μM. Steady-state fluorescence measurements found the ratio of initial fluorescence, F0, to observed fluorescence, F, at each quencher concentration. The linear fit gave an R^2 value of 0.88, which indicated a dominant static quenching mechanism. The slope of this line gave the association constant, KS=9000 M^−1, for the II-3 complex.
Having ruled out a prevalent role for intra- and intermolecular interactions within or between biosensors, we sought further to explain the decrease in Trp fluorescence upon enzymatic cleavage. […] To examine this quenching mechanism, the steady-state fluorescence intensity of the hexapeptide LWRSRK 3 was measured as a function of the cleaved sensor II (putative quencher) concentration in standard buffer. This Stern-Volmer experiment could only be performed within a limited range of II concentrations, due to limitations in the quantity of material and the contribution of this compound to total fluorescence. […] All fluorescence spectra were corrected to remove contributions from cryptophane. The resulting fluorescence maximum at 358 nm, which corresponded to Trp emission of I, decreased with successive additions of II. […]

MMP-7 [6] = target: T1, MMP-7; conditions: reported previously at 303 K; cited from earlier work
[7] = substrate: CC(C)C[C@H](NC(=O)[C@H](C)NC(=O)[C@H](CC(C)C)NC(=O)[C@@H]1CCCN1C(=O)[C@H](CCCNC(=N)N)NC(=O)[C@H](CCCCN)NC(=O)[C@H](CCCNC(=N)N)NC(=O)CCN=[N+]=[N-])C(=O)N[C@@H](Cc1c[nH]c2ccccc12)C(=O)N[C@@H](CCCNC(=N)N)C(=O)N[C@@H](CO)C(=O)N[C@@H](CCCNC(=N)N)C(=O)N[C@@H](CCCCN)C(=O)O; experiment: MMP-7 enzyme kinetic parameters, Michaelis-Menten fit of initial velocities; format: biochemical; conditions: other: MMP-7 42 nM, 298 K, standard buffer
Description: as §1, §3, §2, §4

[8] = target: T2, azidopeptide N3-CH2CH2-CONH2-RKRPLALWRSRK
T2 chain: RKRPLALWRSRK

[9] = target: T3, MMP-7-responsive 129Xe biosensor I (monopropargyl-cryptophane-A coupled to azidopeptide RKRPLALWRSRK)
T3 chain: RKRPLALWRSRK

hexapeptide LWRSRK = target: T4, hexapeptide LWRSRK; experiment: Stern-Volmer steady-state Trp fluorescence quenching; hexapeptide 3 (16 µM) titrated with II (0-120 µM), 298 K, standard buffer
T4 sequence (peptide): LWRSRK

[10] = MMP-7 42 nM, 298 K, standard buffer

- Initial velocity, fluorometric assay (MMP-7 [1]; Biosensor I 6 μM): 0.9 pmol/s
- Initial velocity, fluorometric assay (MMP-7 [1]; Biosensor I 50 μM): 9 pmol/s
- Initial velocity, fluorometric assay (MMP-7 [1]; Biosensor I 100 μM): 8 pmol/s
- Initial velocity, HPLC assay (MMP-7 [2]; Biosensor I 6 μM): 1 pmol/s
- Initial velocity, HPLC assay (MMP-7 [2]; Biosensor I 50 μM): 10 pmol/s
- Initial velocity, HPLC assay (MMP-7 [2]; Biosensor I 100 μM): 7 pmol/s
Molecule: Biosensor I: monopropargyl-cryptophane-A 7 coupled by [3+2] cycloaddition to azidopeptide 1 (RKRPLALWRSRK); MMP-7-responsive 129Xe biosensor ({monopropargyl‑cryptophane‑A (triazole via Cu(I) (3+2) cycloaddition)-3‑azidopropionyl}-RKRPLALWRSRK-OH)
- fold lower Vmax relative to substrate 1 (MMP-7 [3]): 3.6 fold
- Km (MMP-7 [3]; [10]): 43 µM
- Vmax (MMP-7 [3]; [10]): 1.3e-08 M/s
- aggregation in solution [4]: unlikely to aggregate

Molecule: Biosensor II: monopropargyl-cryptophane-A 7 coupled to azidopeptide 2 (RKRPLA); MMP-7 cleaved product of I ({monopropargyl‑cryptophane‑A-3‑azidopropionyl (triazole link)}-RKRPLA-OH)
- association constant KS of the II-3 complex [5]: 9000 ± 1000 M⁻¹ and 9000 M⁻¹
- aggregation in solution [4]: unlikely to aggregate

Molecule: dinitrophenyl-Arg-Pro-Leu-Ala-Leu-Trp-Arg-Ser
- Km (MMP-7 [6]): 26 µM

B1: MMP-7 (Homo sapiens) (protein)
chain: YSLFPNSPKWTSKVVTYRIVSYTRDLPHITVDRLVSKALNMWGKEIPLHFRKVVWGTADIMIGFARGAHGDSYPFDGPGNTLAHAFAPGTGLGGDAHFDEDERWTDGSSLGINFLYAATHELGHSLGMGHSSDPNAVMYPTYGNGDPQNFKLSQDDIKGIQKLYGKRSNSRKK
notes: BIOMOL International LP, MMP-7 (recombinant, catalytic domain); purchased BIOMOL International LP
- Km [7]: 150 µM
- Vmax [7]: 2.82 µM/min
- kcat/Km [7]: 7300 M⁻¹ s⁻¹
- KM [8]: 150 µM
- Vmax [8]: 4.7e-08 M/s
- kcat/KM [8]: 7300 M⁻¹ s⁻¹
- KM [9]: 43 µM
- Vmax [9]: 1.3e-08 M/s
- initial velocity v of proteolysis of biosensor I by MMP-7 (42 nM), fluorometric assay, 298 K; shown without a printed number [9]: v rises with [Biosensor I] from about 1 nM s-1 at about 6 µM to about 8-9 nM s-1 at 74-100 µM; the Michaelis-Menten fit line is still rising at 100 µM, no upper plateau inside the range
- kcat/KM [9]: 7200 M⁻¹ s⁻¹

- Ka (hexapeptide LWRSRK): 9000 M⁻¹
Molecule: {monopropargyl‑cryptophane‑A (via triazole, CuAAC)-3‑azidopropionyl}-RKRPLA-OH [cleaved biosensor II (monopropargyl-cryptophane-A coupled to azidopeptide RKRPLA)]
